Molecular target: CpuTA1, fold type IV transaminase from Curtobacterium pusillum (Curtobacterium pusillum)
Test: crystal structure; CpuTA1 12 mg/mL with 5 mM PLP, co-crystallised with 10 mM 3-amino benzoic acid, 2.4 M sodium malonate pH 7.0, micro-seeding, 289 K; two chains in the asymmetric unit; interface analysed with PDBePISA

Substance “CpuTA1, fold type IV transaminase from Curtobacterium pusillum (enzyme)” has a stoichiometry N of 2.

— publication PMC5131300, “Discovery and structural characterisation of new fold type IV-transaminases exemplify the diversity of this enzyme fold” (Scientific Reports, 2016)
